Paper PMC7859239

Legend:
[1] = target: Schizosaccharomyces pombe RNA polymerase I (Schizosaccharomyces pombe (endogenous in S. pombe)) (UniProt P15398); experiment: negative-stain EM with 2D classification; peak fraction of the analytical SEC in high-salt buffer S1500 (1.5 M KAc); uranyl formate; 20,054 particles classified into 16 classes
[2] = target: Schizosaccharomyces pombe RNA polymerase I (Schizosaccharomyces pombe (endogenous in S. pombe)) (UniProt P15398); experiment: negative-stain EM with 2D classification; peak fraction of the analytical SEC in low-salt buffer S300 (300 mM KAc); uranyl formate; 24,462 particles classified into 16 classes
[3] = target: Schizosaccharomyces pombe RNA polymerase I (Schizosaccharomyces pombe (endogenous in S. pombe)) (UniProt P15398); experiment: cryo-EM structure; dimer particles in the 'monomer' dataset of BS3-crosslinked Sp Pol I after SEC (5 mM HEPES pH 7.8, 1 mM MgCl2, 10 µM ZnCl2, 150 mM KCl, 5 mM DTT); C2 symmetry imposed; 4.5 Å; model by placing two monomers and rigid body fitting of subdomains

Which results are given for “Schizosaccharomyces pombe RNA polymerase I, P15398 1-1689; Q9P7X8 1-1174; O94616 1-348; Q09177 1-125; O43036 1-173; Q9P7P1 1-147; O94703 1-119; Q09191 1-210; P36595 1-142; Q92399 1-125; O13877 1-71; P48011 1-63; O14086 1-425; Q9USZ4 1-251”?
percent of Pol I molecules in a dimeric state [1]: 49%; percent of identified particles in a dimeric state [1]: 32%; percent of particles in a dimeric state [2]: < 2%; stoichiometry N [3]: 2
